# Experimental data as given in the supplement of paper PMC9112550, “Optimization of the antimicrobial peptide Bac7 by deep mutational scanning” (BMC Biology, 2022).
# Tested on: Escherichia coli TOP10
# Assay: shrunken log2 fold change of peptide-encoding DNA abundance (4.5 h post-induction vs induction); higher = less antimicrobial activity (less host growth inhibition)
# Conditions: time post-induction: 4.5 h; library: site-saturation at positions 5, 18, 19, 20
# 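Further: peptides expressed intracellularly from a pBAD plasmid library in pooled LB shake-flask culture, induced with 0.3% L-arabinose, DNA abundance read by NGS, three biological replicates, DESeq2 with apeglm shrinkage.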
row,Sequence,shrunken log2 fold change
1,RRIRGRPPRLPRPRPRPLDVPRP,0.326
2,RRIRLRPPRLPRPRPRPQLLPRP,-0.0176
3,RRIRCRPPRLPRPRPRPYKVPRP,-1.05
4,RRIRQRPPRLPRPRPRPVFAPRP,0.164
5,RRIRYRPPRLPRPRPRPRQMPRP,-0.0779
6,RRIRWRPPRLPRPRPRPERNPRP,-0.117
7,RRIRNRPPRLPRPRPRPHKGPRP,-0.014
8,RRIRPRPPRLPRPRPRPWFQPRP,-0.21
9,RRIRSRPPRLPRPRPRPFEFPRP,-0.42
10,RRIRRRPPRLPRPRPRPDPIPRP,0.227
11,RRIRRRPPRLPRPRPRPCEPPRP,-0.0751
12,RRIRKRPPRLPRPRPRPKQSPRP,0.525
13,RRIRRRPPRLPRPRPRPARFPRP,0.709
14,RRIRQRPPRLPRPRPRPNFTPRP,-0.186
15,RRIRYRPPRLPRPRPRPVPHPRP,-0.262
16,RRIRMRPPRLPRPRPRPHHLPRP,0.0151
17,RRIRIRPPRLPRPRPRPFTLPRP,0.0488
18,RRIRSRPPRLPRPRPRPKAMPRP,-0.148
19,RRIRQRPPRLPRPRPRPYKQPRP,0.0225
20,RRIRCRPPRLPRPRPRPWGEPRP,-0.0965
21,RRIRFRPPRLPRPRPRPQAHPRP,-0.454
22,RRIRHRPPRLPRPRPRPSASPRP,-0.0379
23,RRIRCRPPRLPRPRPRPKTQPRP,0.0268
24,RRIRRRPPRLPRPRPRPFFCPRP,0.167
25,RRIRGRPPRLPRPRPRPIEDPRP,0.0783
26,RRIRRRPPRLPRPRPRPNYHPRP,-0.223
27,RRIRMRPPRLPRPRPRPIFSPRP,0.0637

row,Sequence,shrunken log2 fold change
1,RRIRFRPPRLPRPRPRPLDCPRP,-0.112
2,RRIRARPPRLPRPRPRPTGSPRP,0.841
3,RRIRHRPPRLPRPRPRPKYIPRP,-0.796
4,RRIRQRPPRLPRPRPRPNFMPRP,0.0789
5,RRIRSRPPRLPRPRPRPGGRPRP,0.284
6,RRIRGRPPRLPRPRPRPKYYPRP,0.0864
7,RRIRDRPPRLPRPRPRPSYQPRP,-0.494
8,RRIRNRPPRLPRPRPRPSHAPRP,-0.859
9,RRIRERPPRLPRPRPRPTQTPRP,-0.00311
10,RRIRPRPPRLPRPRPRPNIKPRP,-0.322
11,RRIRYRPPRLPRPRPRPEIWPRP,0.212
12,RRIRSRPPRLPRPRPRPEIQPRP,0.00278
13,RRIRKRPPRLPRPRPRPKNHPRP,0.109
14,RRIRERPPRLPRPRPRPYKPPRP,-0.116
15,RRIRIRPPRLPRPRPRPVDIPRP,-0.405
16,RRIRCRPPRLPRPRPRPLDDPRP,-0.119
17,RRIRARPPRLPRPRPRPNGQPRP,0.208
18,RRIRVRPPRLPRPRPRPYTMPRP,-0.49
19,RRIRYRPPRLPRPRPRPIMCPRP,-0.197
20,RRIRYRPPRLPRPRPRPQAEPRP,-0.0183
21,RRIRDRPPRLPRPRPRPTIVPRP,0.0194
22,RRIRDRPPRLPRPRPRPLVCPRP,0.22
23,RRIRYRPPRLPRPRPRPFDFPRP,-0.409
24,RRIRHRPPRLPRPRPRPANLPRP,-0.00674
25,RRIRGRPPRLPRPRPRPNYAPRP,0.0408
26,RRIRHRPPRLPRPRPRPEVYPRP,-0.0062
27,RRIRDRPPRLPRPRPRPEPRPRP,1
